Results as given in patent publication US20200231671A1 (E R SQUIBB AND SONS L L C, published 2020).

Target: T1, human LAG-3 (cell surface) (human, UniProt P18627 23-525)
T1 construct: whole, on cells; also called CHO-human LAG-3
T1 sequence (looked up): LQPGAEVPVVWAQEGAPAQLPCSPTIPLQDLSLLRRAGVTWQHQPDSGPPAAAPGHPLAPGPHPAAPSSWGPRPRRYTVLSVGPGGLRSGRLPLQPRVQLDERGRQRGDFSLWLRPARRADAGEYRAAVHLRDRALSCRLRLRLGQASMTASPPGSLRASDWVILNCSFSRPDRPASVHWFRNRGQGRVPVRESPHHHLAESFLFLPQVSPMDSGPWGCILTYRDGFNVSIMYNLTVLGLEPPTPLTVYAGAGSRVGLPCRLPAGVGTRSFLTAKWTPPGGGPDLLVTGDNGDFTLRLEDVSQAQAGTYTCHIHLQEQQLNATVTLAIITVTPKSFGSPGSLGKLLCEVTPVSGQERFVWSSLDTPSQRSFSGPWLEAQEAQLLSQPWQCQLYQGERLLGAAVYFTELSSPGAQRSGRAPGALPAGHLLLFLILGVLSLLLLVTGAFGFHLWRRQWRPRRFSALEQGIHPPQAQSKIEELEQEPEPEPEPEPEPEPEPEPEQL
Assay: flow cytometry, CHO cells expressing human LAG-3
Experimental: To test the ability of the antibodies to bind to cell surface LAG-3 protein, the antibodies were incubated with a CHO cell line that had been transfected to express human LAG-3 on the cell surface. The 25F7, 26H10, 25E3, 8B7, 11F2 and 17E5 monoclonal antibodies were serially diluted with cold lx PFAE buffer (1×PBS+2% FBS, 0.02% sodium azide, 2 mM Na EDTA). For the binding reaction, 50 μl of diluted antibody solution was added to a 50 μl cell suspension containing 2×10⁵ cells and the mixture was incubated on ice for 30 minutes. The cells were then washed two times with 1×PFAE buffer. A 1:100 dilution of FITC-labeled goat anti-human kappa light chain antibody (Bethyl Laboratories, Inc., Cat. # A80-115F) was added and the mixture was incubated for 30 minutes at 4° C., followed by washing twice with cold 1×PFAE buffer. After the final wash, 150 μl of cold 1×PFAE containing 10 μg/mL propidium iodide (Roche Applied Science, Cat #1 348 639) was added to each solution and analysis of antibody binding was carried out by flow cytometry using a FACScalibur flow cytometer (BD Bioscience).

B1: 11F2 human monoclonal antibody (antibody, IgG2, V domains shown)
VH: QVQLVQSGAEVKKPGASVKVSCKVSGYTLTEVSMHWVRQAPGKGLEWMGGFDPEDGETIYAQKFQGRVTMTEDTSTDTAYMELSSLRSEDTAVYYCATAFVVVVAASDYWGQGTLVTVSS
VL: EIVLTQSPATLSLSPGERATLSCRASQSVSSYLAWYQQKPGQAPRLLIYDASNRATGIPARFSGSGSGTDFTLTISSLEPEDFAVYYCQQRSNWPWTFGQGTKVEIK
- EC50: 0.0151 µM
